Laboratory results published in article PMC12824264.

Target: BMP9 growth factor domain (GFD) dimer (human) (UniProt Q9UK05)
Assay: ELISA; displacement assay: anti-human CD105 antibody coated; sENG(M):BMP9 or sENG(D):BMP9 captured 2 h at room temperature; BMPRII or ActRIIB ECD at 0x, 1x, 5x, 25x, 125x molar excess for 30 min; BMP9 left in the complex detected with biotinylated anti-BMP9

BMP9 growth factor domain (GFD) dimer (human), sequence (Q9UK05 320-429): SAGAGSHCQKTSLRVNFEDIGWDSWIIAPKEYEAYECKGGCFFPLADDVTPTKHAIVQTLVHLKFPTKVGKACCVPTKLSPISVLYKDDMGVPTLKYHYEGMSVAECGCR

“BMP receptor type II (BMPRII) extracellular domain (from UniProt Q13873 27-150) (domain or fragment)” was tested, and the percent displacement of sENG from the sENG(D):BMP9 complex at 125-fold molar excess was greater than 50%.
